For one series, the system named is c-Src. Kind of series: phosphorylation enrichment, bacterial display (enrichment ratio); higher = better substrate or ligand; peptides without Tyr show the background.
In another series the target is Fyn (UniProt P06241). The series is described as above.
The next series has as its target EPHB1 (UniProt P54762). The series is described as above.
In the next series the target is MERTK (UniProt Q12866). The description is as above.
Another series addresses Jak2 (UniProt O60674). The series is described as above.
A further series deals with EPHB2 (UniProt P29323). The description is as above.
A further series concerns AncSZ. The description is as above.
The target in another series is Hck (UniProt P08631). The description is as above.
A further series deals with Fer (mouse). The series is described as above.
Another series addresses Fes (UniProt P07332). The description is as above.
The next series concerns c-Abl (mouse). The series is described as above.
A further series has as its target FGFR3 (UniProt P22607). Described as above.
In a further series the target is FGFR1 (UniProt P11362). Described as above.
The target in another series is c-Src SH2. Kind of series: SH2 binding enrichment of the phosphorylated peptide, bacterial display (enrichment ratio); higher = better substrate or ligand; peptides without Tyr show the background.
The next series concerns the target SHP2-C SH2. The description is as above.
The next series concerns the target Grb2 SH2 (UniProt P62993). Described as above.
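Wherever SH2 binding enrichment of the phosphorylated peptide, bacterial display is given: peptide library displayed on the E. coli surface as eCPX fusions, selected cells deep-sequenced, score is each peptide's frequency after selection divided by its frequency in the input.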
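Wherever phosphorylation enrichment, bacterial display is given: 11-residue human phosphosite peptides and single-mutation variants displayed on the E. coli surface, counted by deep sequencing, each peptide's frequency after selection divided by its frequency in the unselected input library; frequency after pTyr selection over input frequency; kinase dosed for 20-30% of maximal phosphorylation in three min.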

Chain of Fes (P07332 whole entry, looked up): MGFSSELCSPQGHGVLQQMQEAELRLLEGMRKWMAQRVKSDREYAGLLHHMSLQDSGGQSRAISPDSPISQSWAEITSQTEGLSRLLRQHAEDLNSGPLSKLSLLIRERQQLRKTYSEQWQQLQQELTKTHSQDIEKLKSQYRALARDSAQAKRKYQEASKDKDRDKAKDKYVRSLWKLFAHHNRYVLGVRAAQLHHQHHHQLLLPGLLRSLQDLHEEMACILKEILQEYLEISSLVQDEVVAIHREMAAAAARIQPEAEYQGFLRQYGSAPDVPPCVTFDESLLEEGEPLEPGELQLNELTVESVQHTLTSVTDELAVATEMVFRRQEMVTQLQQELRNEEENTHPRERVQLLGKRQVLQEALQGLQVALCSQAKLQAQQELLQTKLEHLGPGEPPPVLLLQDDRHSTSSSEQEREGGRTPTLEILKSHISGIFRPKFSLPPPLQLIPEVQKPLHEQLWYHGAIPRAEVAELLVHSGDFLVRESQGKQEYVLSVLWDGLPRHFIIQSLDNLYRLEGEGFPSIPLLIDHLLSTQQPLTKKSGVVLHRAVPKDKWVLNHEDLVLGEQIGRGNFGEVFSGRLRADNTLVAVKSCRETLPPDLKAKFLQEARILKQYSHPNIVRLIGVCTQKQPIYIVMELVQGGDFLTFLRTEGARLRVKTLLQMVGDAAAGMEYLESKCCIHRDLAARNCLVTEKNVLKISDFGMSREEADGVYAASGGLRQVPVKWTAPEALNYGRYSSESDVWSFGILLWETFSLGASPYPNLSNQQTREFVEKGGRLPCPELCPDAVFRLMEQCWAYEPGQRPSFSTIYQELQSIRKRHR
Chain of Hck (P08631 whole entry, looked up): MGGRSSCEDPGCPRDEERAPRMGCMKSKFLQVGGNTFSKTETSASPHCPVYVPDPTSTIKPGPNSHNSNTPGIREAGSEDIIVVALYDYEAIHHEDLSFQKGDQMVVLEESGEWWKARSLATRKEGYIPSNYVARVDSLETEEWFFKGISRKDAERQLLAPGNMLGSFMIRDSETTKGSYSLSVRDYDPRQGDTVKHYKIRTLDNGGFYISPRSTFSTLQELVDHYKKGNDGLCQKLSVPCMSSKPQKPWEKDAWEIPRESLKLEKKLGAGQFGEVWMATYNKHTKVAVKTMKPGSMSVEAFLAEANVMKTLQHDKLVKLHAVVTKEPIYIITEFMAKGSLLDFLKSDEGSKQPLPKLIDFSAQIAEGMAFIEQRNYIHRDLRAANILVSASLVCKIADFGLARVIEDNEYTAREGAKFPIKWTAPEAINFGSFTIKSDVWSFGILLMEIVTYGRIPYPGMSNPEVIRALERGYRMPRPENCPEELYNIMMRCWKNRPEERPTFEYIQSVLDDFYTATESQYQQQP
Chain of EPHB2 (P29323 whole entry, looked up): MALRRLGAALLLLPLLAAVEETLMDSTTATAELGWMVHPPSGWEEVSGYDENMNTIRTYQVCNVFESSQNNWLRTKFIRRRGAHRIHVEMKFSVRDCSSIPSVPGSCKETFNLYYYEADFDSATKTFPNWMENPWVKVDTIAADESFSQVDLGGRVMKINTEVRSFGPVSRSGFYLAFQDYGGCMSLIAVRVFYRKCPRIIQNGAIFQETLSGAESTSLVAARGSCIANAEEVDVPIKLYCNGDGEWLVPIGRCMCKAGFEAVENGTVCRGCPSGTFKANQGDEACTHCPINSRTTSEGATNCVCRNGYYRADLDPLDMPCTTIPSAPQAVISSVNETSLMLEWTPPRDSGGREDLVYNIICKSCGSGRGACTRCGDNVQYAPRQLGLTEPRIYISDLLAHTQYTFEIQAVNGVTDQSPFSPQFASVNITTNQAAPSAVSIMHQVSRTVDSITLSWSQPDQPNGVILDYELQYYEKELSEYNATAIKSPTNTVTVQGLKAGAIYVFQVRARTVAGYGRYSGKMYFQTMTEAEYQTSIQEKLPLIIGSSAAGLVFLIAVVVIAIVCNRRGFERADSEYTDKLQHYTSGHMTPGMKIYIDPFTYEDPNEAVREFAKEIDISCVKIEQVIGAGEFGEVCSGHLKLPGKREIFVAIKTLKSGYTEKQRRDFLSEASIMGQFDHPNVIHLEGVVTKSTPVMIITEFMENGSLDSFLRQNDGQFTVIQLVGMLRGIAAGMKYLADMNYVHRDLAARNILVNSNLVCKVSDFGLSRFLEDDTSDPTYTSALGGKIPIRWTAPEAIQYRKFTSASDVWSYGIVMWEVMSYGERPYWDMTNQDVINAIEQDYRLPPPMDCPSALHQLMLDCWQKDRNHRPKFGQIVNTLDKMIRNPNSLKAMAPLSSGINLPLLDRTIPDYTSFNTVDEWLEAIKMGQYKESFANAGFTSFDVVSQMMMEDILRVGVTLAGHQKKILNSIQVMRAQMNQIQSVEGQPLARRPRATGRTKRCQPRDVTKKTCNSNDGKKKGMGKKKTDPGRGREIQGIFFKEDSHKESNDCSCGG
Chain of Jak2 (O60674 whole entry, looked up): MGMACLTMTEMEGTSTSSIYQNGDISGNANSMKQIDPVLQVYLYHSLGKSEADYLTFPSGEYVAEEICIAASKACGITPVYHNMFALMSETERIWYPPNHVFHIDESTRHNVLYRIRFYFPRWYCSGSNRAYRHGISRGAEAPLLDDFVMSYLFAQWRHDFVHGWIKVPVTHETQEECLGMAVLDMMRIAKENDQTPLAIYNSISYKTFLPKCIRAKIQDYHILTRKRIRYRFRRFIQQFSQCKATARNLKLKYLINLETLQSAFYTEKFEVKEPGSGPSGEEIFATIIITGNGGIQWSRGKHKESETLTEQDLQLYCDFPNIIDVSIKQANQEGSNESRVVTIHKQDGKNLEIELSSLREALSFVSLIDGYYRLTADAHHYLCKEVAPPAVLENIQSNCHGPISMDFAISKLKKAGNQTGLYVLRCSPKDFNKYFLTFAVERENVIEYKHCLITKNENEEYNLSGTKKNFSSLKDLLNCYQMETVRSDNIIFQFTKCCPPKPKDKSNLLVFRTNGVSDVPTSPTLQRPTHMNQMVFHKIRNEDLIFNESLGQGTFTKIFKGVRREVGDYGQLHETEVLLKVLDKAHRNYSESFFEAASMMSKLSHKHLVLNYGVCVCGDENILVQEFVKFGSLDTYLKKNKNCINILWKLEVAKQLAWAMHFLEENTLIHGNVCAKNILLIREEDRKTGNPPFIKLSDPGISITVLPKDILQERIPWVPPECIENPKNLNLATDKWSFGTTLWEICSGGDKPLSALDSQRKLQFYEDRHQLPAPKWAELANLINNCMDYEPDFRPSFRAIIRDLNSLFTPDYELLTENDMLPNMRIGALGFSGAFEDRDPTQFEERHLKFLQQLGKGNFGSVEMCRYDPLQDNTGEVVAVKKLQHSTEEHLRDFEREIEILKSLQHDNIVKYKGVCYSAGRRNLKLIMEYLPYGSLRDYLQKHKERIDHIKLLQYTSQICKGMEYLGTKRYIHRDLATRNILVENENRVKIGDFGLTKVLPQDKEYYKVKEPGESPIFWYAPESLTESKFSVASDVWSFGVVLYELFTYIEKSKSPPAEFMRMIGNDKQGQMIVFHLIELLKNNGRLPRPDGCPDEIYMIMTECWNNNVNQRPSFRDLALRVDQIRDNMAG
Chain of Fyn (P06241 whole entry, looked up): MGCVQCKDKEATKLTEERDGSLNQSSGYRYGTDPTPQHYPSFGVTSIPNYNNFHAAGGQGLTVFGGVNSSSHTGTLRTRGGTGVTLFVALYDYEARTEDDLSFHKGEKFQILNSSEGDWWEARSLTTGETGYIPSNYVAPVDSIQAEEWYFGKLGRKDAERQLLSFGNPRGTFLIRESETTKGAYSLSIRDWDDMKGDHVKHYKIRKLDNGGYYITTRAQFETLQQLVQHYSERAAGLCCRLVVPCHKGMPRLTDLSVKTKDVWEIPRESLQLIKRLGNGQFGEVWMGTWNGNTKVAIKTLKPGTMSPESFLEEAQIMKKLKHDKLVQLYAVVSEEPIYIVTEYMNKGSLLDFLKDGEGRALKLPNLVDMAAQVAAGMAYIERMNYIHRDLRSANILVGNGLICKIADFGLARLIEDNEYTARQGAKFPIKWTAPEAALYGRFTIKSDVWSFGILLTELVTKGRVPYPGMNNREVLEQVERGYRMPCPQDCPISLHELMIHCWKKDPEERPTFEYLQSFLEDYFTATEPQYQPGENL
Chain of Grb2 SH2 (P62993 whole entry, looked up, the tested form may be a part): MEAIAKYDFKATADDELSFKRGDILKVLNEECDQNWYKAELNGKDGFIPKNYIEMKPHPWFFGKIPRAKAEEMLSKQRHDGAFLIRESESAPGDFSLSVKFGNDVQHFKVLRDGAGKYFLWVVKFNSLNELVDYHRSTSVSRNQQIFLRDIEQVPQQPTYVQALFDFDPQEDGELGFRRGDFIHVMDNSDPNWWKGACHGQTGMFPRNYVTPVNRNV

As to VVSMNYRVGAL [BCHE_Y174], the phosphorylation enrichment turned out to be 0.342 in the series on c-Src; 0.336 with Fyn; 0.511 with EPHB1; 0.362 with MERTK; 0.722 with Jak2; 0.445 with EPHB2. Besides, the phosphorylation enrichment with AncSZ was determined as 0.703; in the series with Hck, 0.43; in the series on Fer (mouse) it was 0.333; with Fes, 0.802; in the series with c-Abl (mouse), 0.556; with FGFR3, 0.534. The phosphorylation enrichment with FGFR1 worked out at 0.524. Further, the values for the SH2 binding enrichment in the series with c-Src SH2, in the series with SHP2-C SH2 and with Grb2 SH2 were 0.446, 0.771 and 0.475, respectively.
Turning to WCSNDYLGMSQ [ALAS2_Y199_R204Q], the phosphorylation enrichment in the series with c-Src is 1.06; with Fyn it was 0.541; with EPHB1 it was 1.52; with MERTK, 0.478; in the series with Jak2 it was 4.19; with EPHB2, 0.944. Besides, the phosphorylation enrichment turned out to be 2.88 with AncSZ; 0.738 with Hck; 0.642 in the series on Fer (mouse); 1.02 with Fes; 0.782 in the series with c-Abl (mouse); 2.11 in the series with FGFR3. For the same sequence, the phosphorylation enrichment with FGFR1 was determined as 3.03. Further, the SH2 binding enrichment amounted to 0.717 with c-Src SH2, 0.738 with SHP2-C SH2 and 1.1 with Grb2 SH2.
Turning to WGLCSYYETSK [MAGED2_Y448_R446C], the phosphorylation enrichment with c-Src came to 0.712; with Fyn, 0.488; with EPHB1 it was 0.865; with MERTK, 0.56; with Jak2 it was 1.35; with EPHB2 it was 0.73. Moreover, the phosphorylation enrichment is 1.38 in the series on AncSZ; 0.58 with Hck; 0.572 in the series on Fer (mouse); 1.31 with Fes; 0.818 with c-Abl (mouse); 1.02 with FGFR3. Further, in the series with FGFR1, the phosphorylation enrichment was 0.76. Further, the figures for the SH2 binding enrichment with c-Src SH2, with SHP2-C SH2 and with Grb2 SH2 were 0.586, 0.526 and 0.765, respectively.
On to WHHTFYNEPRV [ACTA1_Y93_L96P], for which the phosphorylation enrichment in the series with c-Src was found to be 0.508; in the series with Fyn it was 0.429; with EPHB1 it was 0.573; with MERTK, 0.59; with Jak2, 0.794; with EPHB2 it was 0.497. The phosphorylation enrichment is 0.965 in the series with AncSZ; 0.552 with Hck; 0.582 with Fer (mouse); 1.03 in the series with Fes; 0.709 in the series with c-Abl (mouse); 0.561 with FGFR3. In the series with FGFR1, the phosphorylation enrichment is 0.522. Besides, the SH2 binding enrichment was found to be 1.57 with c-Src SH2, 1.07 with SHP2-C SH2 and 1.4 in the series with Grb2 SH2.
As to WKESWYSMRKM [FGB_Y475_G472E], the phosphorylation enrichment in the series on c-Src came to 0.672; in the series with Fyn, 0.554; in the series with EPHB1, 0.714; with MERTK, 0.544; with Jak2, 1.33; in the series with EPHB2, 0.669. Moreover, the phosphorylation enrichment in the series on AncSZ was found to be 1.05; with Hck it was 0.591; in the series with Fer (mouse) it was 0.535; in the series with Fes, 1.34; with c-Abl (mouse), 0.792; with FGFR3, 0.738. The phosphorylation enrichment in the series with FGFR1 stood at 0.513. Also, the values for the SH2 binding enrichment in the series with c-Src SH2, in the series with SHP2-C SH2 and with Grb2 SH2 were 0.708, 0.969 and 1.08, respectively.
With WLFFRYLAIGC [ATP2A2_Y836], the phosphorylation enrichment in the series on c-Src was 0.432; in the series with Fyn, 0.477; with EPHB1, 0.633; in the series with MERTK it was 0.482; with Jak2, 1.49; in the series with EPHB2, 0.496. The phosphorylation enrichment was determined as 1.51 in the series with AncSZ; 0.462 with Hck; 0.573 in the series on Fer (mouse); 1.55 with Fes; 1.09 in the series with c-Abl (mouse); 0.798 with FGFR3. For the same sequence, the phosphorylation enrichment with FGFR1 was determined as 0.503. In addition, the figures for the SH2 binding enrichment in the series with c-Src SH2, with SHP2-C SH2 and in the series with Grb2 SH2 were 0.36, 0.573 and 0.826, respectively.
Turning to WNEVGYDDIGG [VCP_Y203_L198W], the phosphorylation enrichment came to 0.502 in the series with c-Src; 0.422 with Fyn; 0.608 with EPHB1; 0.406 with MERTK; 1.14 in the series with Jak2; 0.515 with EPHB2. The phosphorylation enrichment in the series with AncSZ stood at 1.07; with Hck it was 0.538; in the series with Fer (mouse), 0.53; in the series with Fes it was 1.27; in the series with c-Abl (mouse) it was 0.737; with FGFR3, 0.724. The phosphorylation enrichment with FGFR1 is 0.557. In addition, the SH2 binding enrichment is 9.33 in the series with c-Src SH2, 0.566 in the series with SHP2-C SH2 and 0.973 in the series with Grb2 SH2.
For the sequence WNGDKYAATTT [TRIM39_Y439], the phosphorylation enrichment came out at 0.421 in the series on c-Src; 0.48 with Fyn; 0.462 in the series with EPHB1; 0.381 in the series with MERTK; 0.729 with Jak2; 0.592 with EPHB2. Besides, the phosphorylation enrichment in the series with AncSZ came out at 0.717; with Hck it was 0.52; with Fer (mouse), 0.446; with Fes, 0.731; with c-Abl (mouse) it was 0.513; with FGFR3, 0.679. Also, in the series with FGFR1, the phosphorylation enrichment is 0.654. Further, the SH2 binding enrichment with c-Src SH2 worked out at 0.481; in the series with SHP2-C SH2, 0.61; with Grb2 SH2, 0.994.

The record behind these values is the supplement of paper PMC10065799, “High-throughput profiling of sequence recognition by tyrosine kinases and SH2 domains using bacterial peptide display” (eLife, 2023).
